Results taken from patent publication US20060160994A1 (STICHTING SANQUIN BLOEDVOORZIENING, published 2006).

Columns and labels:
[1] = molecular target: T1, low density lipoprotein receptor-related protein (LRP), purified and immobilized (UniProt Q07954 20-4544, limits assumed); assay: SPR, LRP immobilized (6.7 fmol/mm^2), two classes of binding sites, class B
T1 construct: Purified LRP, amine-coupled to a CM5 sensor chip; also called low density lipoprotein receptor protein; alpha2-macroglobulin receptor
Description: (§1) This method is generally known in the art and was employed for the kinetic analysis of the interaction between LRP and receptor-associated protein (RAP) (Hom I, in LRP-ligand interactions: kinetics and structural requirements; Ph.D. thesis, 1997, pp. 65-106, Amsterdam University). […] Subsequently, the channels were incubated with the same buffer at a similar flow so as to enable dissociation.
(§2) The data were analyzed by means of Biacore Evaluation Software (Pharmacia Biosensor AB, Uppsala, Sweden). […] The association and dissociation speed constants (kₒₙ and koff, respectively) were calculated for the two binding sites. These speed constants were subsequently used to obtain the affinity constants (Kd) for these interactions.

[2] = molecular target: T1, low density lipoprotein …; assay: SPR, LRP immobilized (6.7 fmol/mm^2), two classes of binding sites, class A
Description: as §1, §2

[3] = molecular target: T1, low density lipoprotein …; assay: SPR, LRP immobilized (6.7 fmol/mm^2), two classes of binding sites, class B; Kd = koff/kon
Description: as §1, §2

[4] = molecular target: T1, low density lipoprotein …; assay: SPR, LRP immobilized (6.7 fmol/mm^2), two classes of binding sites, class A; Kd = koff/kon
Description: as §1, §2

T1 sequence (Q07954 20-4544 limits assumed, form in doubt): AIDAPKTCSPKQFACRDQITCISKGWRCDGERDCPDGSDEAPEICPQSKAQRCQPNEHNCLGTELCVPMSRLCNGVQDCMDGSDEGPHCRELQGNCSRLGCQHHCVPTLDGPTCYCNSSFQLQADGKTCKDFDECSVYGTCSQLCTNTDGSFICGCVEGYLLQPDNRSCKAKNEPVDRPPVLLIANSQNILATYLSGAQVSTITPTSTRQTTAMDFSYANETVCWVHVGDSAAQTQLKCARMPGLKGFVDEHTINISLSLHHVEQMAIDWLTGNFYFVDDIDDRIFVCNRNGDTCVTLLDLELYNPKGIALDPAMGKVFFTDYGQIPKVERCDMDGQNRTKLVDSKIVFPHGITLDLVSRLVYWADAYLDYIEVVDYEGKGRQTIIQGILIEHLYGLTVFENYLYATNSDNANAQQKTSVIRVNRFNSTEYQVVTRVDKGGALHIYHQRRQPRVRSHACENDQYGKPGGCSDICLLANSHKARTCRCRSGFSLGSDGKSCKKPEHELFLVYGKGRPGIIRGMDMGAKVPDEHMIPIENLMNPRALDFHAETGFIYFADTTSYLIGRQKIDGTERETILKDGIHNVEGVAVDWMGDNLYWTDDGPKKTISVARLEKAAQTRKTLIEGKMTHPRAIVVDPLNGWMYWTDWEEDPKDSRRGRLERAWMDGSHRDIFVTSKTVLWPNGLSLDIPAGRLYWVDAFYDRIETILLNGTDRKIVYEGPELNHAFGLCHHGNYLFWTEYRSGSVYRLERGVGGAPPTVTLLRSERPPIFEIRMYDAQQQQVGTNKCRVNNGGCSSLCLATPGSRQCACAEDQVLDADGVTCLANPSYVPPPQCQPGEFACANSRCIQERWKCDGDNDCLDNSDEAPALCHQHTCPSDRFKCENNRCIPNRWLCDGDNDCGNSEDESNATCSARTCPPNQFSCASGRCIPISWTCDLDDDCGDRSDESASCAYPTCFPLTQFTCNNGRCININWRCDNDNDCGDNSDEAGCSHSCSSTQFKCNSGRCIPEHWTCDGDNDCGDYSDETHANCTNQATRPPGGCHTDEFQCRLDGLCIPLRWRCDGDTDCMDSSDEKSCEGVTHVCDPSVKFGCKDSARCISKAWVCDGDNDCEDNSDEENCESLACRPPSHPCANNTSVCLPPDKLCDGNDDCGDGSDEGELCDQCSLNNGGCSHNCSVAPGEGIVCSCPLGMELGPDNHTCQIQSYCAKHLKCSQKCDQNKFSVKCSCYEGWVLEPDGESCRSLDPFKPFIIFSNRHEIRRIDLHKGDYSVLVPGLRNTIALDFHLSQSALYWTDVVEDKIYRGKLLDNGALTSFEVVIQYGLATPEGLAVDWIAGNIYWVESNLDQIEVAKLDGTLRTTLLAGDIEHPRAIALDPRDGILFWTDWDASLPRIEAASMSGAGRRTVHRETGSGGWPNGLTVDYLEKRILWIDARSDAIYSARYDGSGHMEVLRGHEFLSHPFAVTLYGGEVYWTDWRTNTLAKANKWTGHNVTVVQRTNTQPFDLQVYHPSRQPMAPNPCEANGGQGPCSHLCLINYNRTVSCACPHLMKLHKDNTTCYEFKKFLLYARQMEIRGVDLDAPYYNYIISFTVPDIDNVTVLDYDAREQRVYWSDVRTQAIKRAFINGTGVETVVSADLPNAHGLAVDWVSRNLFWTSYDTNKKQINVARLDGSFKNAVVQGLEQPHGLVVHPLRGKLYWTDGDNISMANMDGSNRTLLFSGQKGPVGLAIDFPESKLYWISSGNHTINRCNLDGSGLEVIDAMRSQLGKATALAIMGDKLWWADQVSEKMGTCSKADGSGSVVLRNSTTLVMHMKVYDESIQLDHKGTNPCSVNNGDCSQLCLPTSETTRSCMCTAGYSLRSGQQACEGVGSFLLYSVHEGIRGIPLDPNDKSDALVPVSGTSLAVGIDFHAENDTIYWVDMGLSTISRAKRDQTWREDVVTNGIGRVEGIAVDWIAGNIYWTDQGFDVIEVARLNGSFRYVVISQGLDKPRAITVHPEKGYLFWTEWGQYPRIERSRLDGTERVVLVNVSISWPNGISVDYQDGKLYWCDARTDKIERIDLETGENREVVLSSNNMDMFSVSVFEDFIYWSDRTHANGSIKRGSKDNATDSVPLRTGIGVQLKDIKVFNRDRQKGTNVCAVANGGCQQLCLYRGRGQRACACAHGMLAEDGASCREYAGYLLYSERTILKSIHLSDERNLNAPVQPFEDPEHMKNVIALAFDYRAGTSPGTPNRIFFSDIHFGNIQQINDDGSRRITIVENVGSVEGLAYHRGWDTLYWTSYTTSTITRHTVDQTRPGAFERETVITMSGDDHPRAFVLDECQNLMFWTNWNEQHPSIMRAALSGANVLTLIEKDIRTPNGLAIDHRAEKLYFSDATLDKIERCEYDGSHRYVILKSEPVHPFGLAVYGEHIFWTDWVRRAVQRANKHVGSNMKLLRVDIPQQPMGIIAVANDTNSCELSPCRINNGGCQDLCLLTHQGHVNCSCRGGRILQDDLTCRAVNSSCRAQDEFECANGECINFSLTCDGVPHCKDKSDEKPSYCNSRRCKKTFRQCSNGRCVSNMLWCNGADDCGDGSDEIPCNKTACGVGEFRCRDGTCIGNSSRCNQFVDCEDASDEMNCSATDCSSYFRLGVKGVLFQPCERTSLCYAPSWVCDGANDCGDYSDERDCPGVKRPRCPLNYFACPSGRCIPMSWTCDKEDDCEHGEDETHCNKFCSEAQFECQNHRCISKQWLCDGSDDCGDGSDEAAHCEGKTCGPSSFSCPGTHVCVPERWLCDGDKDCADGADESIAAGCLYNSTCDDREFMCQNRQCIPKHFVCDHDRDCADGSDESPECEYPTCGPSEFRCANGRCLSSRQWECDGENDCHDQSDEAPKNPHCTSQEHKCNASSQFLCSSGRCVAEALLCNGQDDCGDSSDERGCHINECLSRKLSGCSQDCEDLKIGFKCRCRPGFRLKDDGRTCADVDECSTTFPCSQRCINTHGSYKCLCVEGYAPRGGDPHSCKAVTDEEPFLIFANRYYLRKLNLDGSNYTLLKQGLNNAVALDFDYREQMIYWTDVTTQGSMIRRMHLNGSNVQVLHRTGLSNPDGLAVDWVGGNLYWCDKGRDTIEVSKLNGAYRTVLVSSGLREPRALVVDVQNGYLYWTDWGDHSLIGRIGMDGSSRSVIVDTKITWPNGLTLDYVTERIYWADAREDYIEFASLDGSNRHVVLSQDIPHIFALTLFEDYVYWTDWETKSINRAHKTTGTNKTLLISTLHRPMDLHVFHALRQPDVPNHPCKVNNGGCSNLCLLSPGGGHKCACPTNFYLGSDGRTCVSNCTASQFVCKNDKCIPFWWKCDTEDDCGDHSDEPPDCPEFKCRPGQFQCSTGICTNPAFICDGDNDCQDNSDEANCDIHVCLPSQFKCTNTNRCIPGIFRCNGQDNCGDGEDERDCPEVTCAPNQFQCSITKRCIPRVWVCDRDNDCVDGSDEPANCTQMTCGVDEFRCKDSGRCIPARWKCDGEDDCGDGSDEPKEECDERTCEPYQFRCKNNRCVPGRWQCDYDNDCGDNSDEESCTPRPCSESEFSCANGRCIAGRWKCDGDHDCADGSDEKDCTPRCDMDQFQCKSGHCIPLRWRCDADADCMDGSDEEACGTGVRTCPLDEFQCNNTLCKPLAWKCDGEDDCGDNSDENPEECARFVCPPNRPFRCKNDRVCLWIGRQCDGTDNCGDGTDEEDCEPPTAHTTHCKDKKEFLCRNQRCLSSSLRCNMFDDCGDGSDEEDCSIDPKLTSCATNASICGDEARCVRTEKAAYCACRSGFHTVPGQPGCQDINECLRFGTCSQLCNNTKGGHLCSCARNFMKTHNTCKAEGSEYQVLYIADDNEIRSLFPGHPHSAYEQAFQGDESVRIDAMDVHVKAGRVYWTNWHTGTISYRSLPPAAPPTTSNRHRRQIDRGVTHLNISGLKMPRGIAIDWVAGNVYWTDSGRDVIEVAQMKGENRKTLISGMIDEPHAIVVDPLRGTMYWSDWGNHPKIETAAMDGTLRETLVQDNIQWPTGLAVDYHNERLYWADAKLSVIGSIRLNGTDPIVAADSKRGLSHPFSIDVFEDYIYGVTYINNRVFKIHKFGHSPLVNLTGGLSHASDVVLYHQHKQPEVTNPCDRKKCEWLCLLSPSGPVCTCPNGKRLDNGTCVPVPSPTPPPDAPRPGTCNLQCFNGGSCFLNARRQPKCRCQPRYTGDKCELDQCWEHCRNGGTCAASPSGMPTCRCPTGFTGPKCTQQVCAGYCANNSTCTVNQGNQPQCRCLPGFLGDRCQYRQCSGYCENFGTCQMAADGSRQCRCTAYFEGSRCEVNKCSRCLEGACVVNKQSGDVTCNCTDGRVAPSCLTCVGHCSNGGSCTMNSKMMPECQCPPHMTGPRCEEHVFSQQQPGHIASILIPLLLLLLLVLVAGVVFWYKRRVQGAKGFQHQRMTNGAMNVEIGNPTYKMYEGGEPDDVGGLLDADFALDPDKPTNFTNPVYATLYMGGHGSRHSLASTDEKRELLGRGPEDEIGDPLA

B1: light chain of Factor VIII (other)
chain: EITRTTLQSDQEEIDYDDTISVEMKKEDFDIYDEDENQSPRSFQKKTRHYFIAAVERLWDYGMSSSPHVLRNRAQSGSVPQFKKVVFQEFTDGSFTQPLYRGELNEHLGLLGPYIRAEVEDNIMVTFRNQASRPYSFYSSLISYEEDQRQGAEPRKNFVKPNETKTYFWKVQHHMAPTKDEFDCKAWAYFSDVDLEKDVHSGLIGPLLVCHTNTLNPAHGRQVTVQEFALFFTIFDETKSWYFTENMERNCRAPCNIQMEDPTFKENYRFHAINGYIMDTLPGLVMAQDQRIRWYLLSMGSNENIHSIHFSGHVFTVRKKEEYKMALYNLYPGVFETVEMLPSKAGIWRVECLIGEHLHAGMSTLFLVYSNKCQTPLGMASGHIRDFQITASGQYGQWAPKLARLHYSGSINAWSTKEPFSWIKVDLLAPMIIHGIKTQGARQKFSSLYISQFIIMYSLDGKKWQTYRGNSTGTLMVFFGNVDSSGIKHNIFNPPIIARYIRLHPTHYSIRSTLRMELMGCDLNSCSMPLGMESKAISDAQITASSYFTNMFATWSPSKARLHLQGRSNAWRPQVNNPKEWLQVDFQKTMKVTGVTTQGVKSLLTSMYVKEFLISSSQDGHQWTLFFQNGKVKVFQGNQDSFTPVVNSLDPPLLTRYLRIHPQSWVHQIALRMEVLGCEAQDLY
notes: also called Factor VIII light chain
koff [1]: 0.0027 s⁻¹ | kon [1]: 72000 M⁻¹ s⁻¹ | koff [2]: 0.055 s⁻¹ | kon [2]: 300000 M⁻¹ s⁻¹ | Kd [3]: 37 nM | Kd [4]: 182 nM
